As usually defined, the Kd is the equilibrium constant for the complex coming apart.

Experimental findings from US20130115635A1 are described below.

The target of assay [1] is Peptide N-YEPEA-C. The assay can be described thus: ITC, 303.1 K. A general note: Isothermal titration calorimetry measures the heat released or taken up as one component is titrated into another.
In assay [2] the target is Peptide N-YEPEA-C. The assay can be described thus: ITC, 293.1 K.
For assay [3], the target named is Peptide N-YEPEA-C. The assay can be described thus: ITC, 298.1 K.
Assay [4] deals with Peptide N-YEPEA-C. The assay can be described thus: ITC, 310.1 K.

B1: NbSyn2 (VHH)
VHH: QGQLVESGGGSVQAGGSLRLSCAASGIDSSSYCMGWFRQRPGKEREGVARINGLGGVKTAYADSVKDRFTISRDNAENTVYLQMNSLKPEDTAIYYCAAKFSPGYCGGSWSNFGYWGQGTQVTVSS
Consider B1, for which the dissociation constant Kd in the assay with Peptide N-YEPEA-C [1] was 460 nM; with Peptide N-YEPEA-C [2] it was 240 nM; with Peptide N-YEPEA-C [3], 190 nM; in the assay with Peptide N-YEPEA-C [4] it was 850 nM. Besides, the Stoichiometry in the assay with Peptide N-YEPEA-C [1] worked out at 0.94; with Peptide N-YEPEA-C [2], 0.98; with Peptide N-YEPEA-C [3], 0.99; in the assay with Peptide N-YEPEA-C [4], 0.92.
